According to paper doi:10.1101/2024.04.19.590298 (bioRxiv, 2024):

Assays:
[1] = biological target: T1, recombinant SARS-CoV-2 nucleocapsid protein (SARS-CoV-2 (reference sequence …, UniProt P0DTC9)); assay: ELISA; peptide competition ELISA: plate coated with 0.1 ug/ml recombinant NP overnight at 4°C; 40 μL mBG17 pre-incubated 1 h at room temperature with 40 μg (approximately 30 nMol) of a single peptide, then applied to the plate 1 h at room temperature; goat anti-mouse HRP, A450; triplicate; conditions: both partners purified
T1 construct: SARS-CoV-2 nucleocapsid protein; also called NP; SARS-CoV-2 NP

[2] = biological target: T2, Nucleocapsid a. a. 401–410 (Frag 5) (SARS-CoV-2 (YP_009724397 reference)); assay: as above; conditions: both partners purified
T2 construct: SARS-CoV-2 nucleocapsid protein, residues 401-410; also called Fragment 5; WT (a.a. 401–410) peptide; source: synthetic peptide (Thermo Scientific)
T2 chain: DDFSKQLQQS

B1: anti-SARS-CoV-2 nucleocapsid protein (NP) monoclonal mouse antibody mBG17 (recombinant) (antibody, V domains shown)
VH: EVKLEESGGGLVQPGGSMKFSCVASGFTFSDYWMNWVRQSPDKGLEWVAEIRLKSNNYATHYAASVKGRFTISRDDSKSSVYLQMNNLRAEDSGIYYCTRSAMDYWGQGTSVTVSS
VL: DIVMSQSPSSLAVSVGEKITMSCKSSQSLLYTSDQKNYLAWFQQKPGQSPKLLIFWASTRDSGVPDRFTGSGSGTDFTLTISSVKAEDLAVYYCQQFYNYPRTFGGGTKLEIK
notes: Whole antibody, detected with goat anti-mouse HRP; The scFv forms were used in calculations only; also called recombinant mBG17
binding result [1]: binds | binding result [2]: binds
